Test results reported in patent US20250115669A1, “FGFR1/KLB Targeting Agonistic Antigen-Binding Proteins and Conjugates Thereof with GLP-1R Agonistic Peptides” (SANOFI, priority 2020, published 2025).

T1: human beta-Klotho (Homo sapiens, UniProt Q86Z14)
T1 sequence (Q86Z14 1-1044): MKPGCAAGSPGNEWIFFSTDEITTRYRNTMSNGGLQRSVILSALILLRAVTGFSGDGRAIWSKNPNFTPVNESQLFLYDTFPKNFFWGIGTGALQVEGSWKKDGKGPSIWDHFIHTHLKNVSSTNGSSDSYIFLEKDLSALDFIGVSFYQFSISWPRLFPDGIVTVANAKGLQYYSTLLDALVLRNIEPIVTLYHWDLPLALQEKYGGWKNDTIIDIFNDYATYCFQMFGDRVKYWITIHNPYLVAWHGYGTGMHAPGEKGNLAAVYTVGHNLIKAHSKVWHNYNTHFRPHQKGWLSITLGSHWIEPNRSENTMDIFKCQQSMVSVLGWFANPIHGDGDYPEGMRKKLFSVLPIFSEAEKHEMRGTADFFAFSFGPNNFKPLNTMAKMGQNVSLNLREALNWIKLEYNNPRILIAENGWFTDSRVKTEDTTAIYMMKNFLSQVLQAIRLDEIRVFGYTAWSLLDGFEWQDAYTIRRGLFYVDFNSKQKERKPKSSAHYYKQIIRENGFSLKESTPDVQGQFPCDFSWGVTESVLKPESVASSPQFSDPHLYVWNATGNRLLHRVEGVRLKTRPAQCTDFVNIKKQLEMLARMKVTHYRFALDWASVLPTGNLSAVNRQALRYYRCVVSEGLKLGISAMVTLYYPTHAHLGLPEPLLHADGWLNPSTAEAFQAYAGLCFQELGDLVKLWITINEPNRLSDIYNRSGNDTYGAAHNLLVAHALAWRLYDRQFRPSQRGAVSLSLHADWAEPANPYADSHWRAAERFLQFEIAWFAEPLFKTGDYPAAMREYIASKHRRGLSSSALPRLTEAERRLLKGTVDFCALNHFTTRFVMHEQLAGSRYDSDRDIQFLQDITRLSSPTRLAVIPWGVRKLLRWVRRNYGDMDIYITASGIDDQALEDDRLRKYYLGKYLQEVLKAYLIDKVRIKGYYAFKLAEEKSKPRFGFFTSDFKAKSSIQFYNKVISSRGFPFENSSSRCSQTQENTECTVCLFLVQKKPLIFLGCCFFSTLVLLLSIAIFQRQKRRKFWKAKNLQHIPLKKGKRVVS


Target: T1, human beta-Klotho
Test: SPR off-rate screening of antibody mutants (human beta-Klotho captured by anti-His antibody)
Assay type: binding
Conditions: mean, n=3
Description: Screening of antibody mutants for binding to human beta-Klotho was determined in a different SPR assay set up. Human beta-Klotho was affinity captured by an anti-His antibody (from His capture kit, GE Healthcare) that was immobilized to a series S CM5 chip (GE Healthcare) by amine reactive coupling as described above. The antibody samples were used as analytes at 50 nmol/L concentration. Association time was 240 sec and dissociation time was 300 sec. Chip surfaces were regenerated using the regeneration solution supplied with the His capture kit. The off-rates (kd) were determined using single exponential fitting in the Biacore 8K Evaluation Software version 1.1.1.7442 (GE Healthcare).

Molecule | koff human KLB
Ab0319: IgG4 PE; 16H7 VL (D49Y, D50E, D91T, N93E); 16H7 VH (M34V, I83T, D109E) (antibody) VH: QVTLKESGPVLVKPTETLTLTCTVSGFSLNNARVGVSWIRQPPGKALEWLAHIFSNDEKSYSTSLKSRLTISKDTSKSQVVLTMTNMDPVDTATYYCARSVVTGGYYYEGMDVWGQGTTVTVSS light: SYVLTQPPSVSVAPGQTARITCGGNNIGSESVHWYQQKPGQAPVLVVYYESDRPSGIPERFSGSNSGNTATLTISRVEAGDEADYYCQVWTGESDHVVFGGGTKLTVLGQPKANPTVTLFPPSSEELQANKATLVCLISDFYPGAVTVAWKADGSPVKAGVETTKPSKQSNNKYAASSYLSLTPEQWKSHRSYSCQVTHEGSTVEKTVAPTECS | invalid fit
Ab0377: IgG4 PE; 16H7 VL (Y48del, D95V, W90F); 16H7 VH (M34V, F54W, I83T, D109E) (antibody) VH: QVTLKESGPVLVKPTETLTLTCTVSGFSLNNARVGVSWIRQPPGKALEWLAHIWSNDEKSYSTSLKSRLTISKDTSKSQVVLTMTNMDPVDTATYYCARSVVTGGYYYEGMDVWGQGTTVTVSS light: SYVLTQPPSVSVAPGQTARITCGGNNIGSESVHWYQQKPGQAPVLVVDDSDRPSGIPERFSGSNSGNTATLTISRVEAGDEADYYCQVFDGNSVHVVFGGGTKLTVLGQPKANPTVTLFPPSSEELQANKATLVCLISDFYPGAVTVAWKADGSPVKAGVETTKPSKQSNNKYAASSYLSLTPEQWKSHRSYSCQVTHEGSTVEKTVAPTECS | no binding
Ab0373: IgG4 PE; 16H7 VL (Y48del, D95E, W90H, S94C, H96C); 16H7 VH (M34V, H52W, I83T, D109E) (antibody) VH: QVTLKESGPVLVKPTETLTLTCTVSGFSLNNARVGVSWIRQPPGKALEWLAWIFSNDEKSYSTSLKSRLTISKDTSKSQVVLTMTNMDPVDTATYYCARSVVTGGYYYEGMDVWGQGTTVTVSS light: SYVLTQPPSVSVAPGQTARITCGGNNIGSESVHWYQQKPGQAPVLVVDDSDRPSGIPERFSGSNSGNTATLTISRVEAGDEADYYCQVHDGNCECVVFGGGTKLTVLGQPKANPTVTLFPPSSEELQANKATLVCLISDFYPGAVTVAWKADGSPVKAGVETTKPSKQSNNKYAASSYLSLTPEQWKSHRSYSCQVTHEGSTVEKTVAPTECS | no binding
Ab0378: IgG4 PE; 16H7 VL (Y48del, D95V, W90F); 16H7 VH (M34V, H52S, F54W, I83T, D109E) (antibody) VH: QVTLKESGPVLVKPTETLTLTCTVSGFSLNNARVGVSWIRQPPGKALEWLASIWSNDEKSYSTSLKSRLTISKDTSKSQVVLTMTNMDPVDTATYYCARSVVTGGYYYEGMDVWGQGTTVTVSS light: SYVLTQPPSVSVAPGQTARITCGGNNIGSESVHWYQQKPGQAPVLVVDDSDRPSGIPERFSGSNSGNTATLTISRVEAGDEADYYCQVFDGNSVHVVFGGGTKLTVLGQPKANPTVTLFPPSSEELQANKATLVCLISDFYPGAVTVAWKADGSPVKAGVETTKPSKQSNNKYAASSYLSLTPEQWKSHRSYSCQVTHEGSTVEKTVAPTECS | no binding
Ab0374: IgG4 PE; 16H7 VL (Y48del, D95E, W90F); 16H7 VH (M34V, F54W, I83T, D109E) (antibody) VH: QVTLKESGPVLVKPTETLTLTCTVSGFSLNNARVGVSWIRQPPGKALEWLAHIWSNDEKSYSTSLKSRLTISKDTSKSQVVLTMTNMDPVDTATYYCARSVVTGGYYYEGMDVWGQGTTVTVSS light: SYVLTQPPSVSVAPGQTARITCGGNNIGSESVHWYQQKPGQAPVLVVDDSDRPSGIPERFSGSNSGNTATLTISRVEAGDEADYYCQVFDGNSEHVVFGGGTKLTVLGQPKANPTVTLFPPSSEELQANKATLVCLISDFYPGAVTVAWKADGSPVKAGVETTKPSKQSNNKYAASSYLSLTPEQWKSHRSYSCQVTHEGSTVEKTVAPTECS | no binding
Ab0372: IgG4 PE; 16H7 VL (Y48del, D95E, W90H, S1C, S94C); 16H7 VH (M34V, H52W, I83T, D109E) (antibody) VH: QVTLKESGPVLVKPTETLTLTCTVSGFSLNNARVGVSWIRQPPGKALEWLAWIFSNDEKSYSTSLKSRLTISKDTSKSQVVLTMTNMDPVDTATYYCARSVVTGGYYYEGMDVWGQGTTVTVSS light: CYVLTQPPSVSVAPGQTARITCGGNNIGSESVHWYQQKPGQAPVLVVDDSDRPSGIPERFSGSNSGNTATLTISRVEAGDEADYYCQVHDGNCEHVVFGGGTKLTVLGQPKANPTVTLFPPSSEELQANKATLVCLISDFYPGAVTVAWKADGSPVKAGVETTKPSKQSNNKYAASSYLSLTPEQWKSHRSYSCQVTHEGSTVEKTVAPTECS | no binding
Ab0376: IgG4 PE; 16H7 VL (Y48del, D95E, W90F, S94C, H96C); 16H7 VH (M34V, F54W, I83T, D109E) (antibody) VH: QVTLKESGPVLVKPTETLTLTCTVSGFSLNNARVGVSWIRQPPGKALEWLAHIWSNDEKSYSTSLKSRLTISKDTSKSQVVLTMTNMDPVDTATYYCARSVVTGGYYYEGMDVWGQGTTVTVSS light: SYVLTQPPSVSVAPGQTARITCGGNNIGSESVHWYQQKPGQAPVLVVDDSDRPSGIPERFSGSNSGNTATLTISRVEAGDEADYYCQVFDGNCECVVFGGGTKLTVLGQPKANPTVTLFPPSSEELQANKATLVCLISDFYPGAVTVAWKADGSPVKAGVETTKPSKQSNNKYAASSYLSLTPEQWKSHRSYSCQVTHEGSTVEKTVAPTECS | no binding
Ab0320: IgG4 PE; 16H7 VL (N25S, D49Y, D50E, D91T, N93E); 16H7 VH (M34V, I83T, D109E) (antibody) VH: QVTLKESGPVLVKPTETLTLTCTVSGFSLNNARVGVSWIRQPPGKALEWLAHIFSNDEKSYSTSLKSRLTISKDTSKSQVVLTMTNMDPVDTATYYCARSVVTGGYYYEGMDVWGQGTTVTVSS light: SYVLTQPPSVSVAPGQTARITCGGSNIGSESVHWYQQKPGQAPVLVVYYESDRPSGIPERFSGSNSGNTATLTISRVEAGDEADYYCQVWTGESDHVVFGGGTKLTVLGQPKANPTVTLFPPSSEELQANKATLVCLISDFYPGAVTVAWKADGSPVKAGVETTKPSKQSNNKYAASSYLSLTPEQWKSHRSYSCQVTHEGSTVEKTVAPTECS | invalid fit
Ab0371: IgG4 PE; 16H7 VL (Y48del, D95E, W90H); 16H7 VH (M34V, H52W, I83T, D109E) (antibody) VH: QVTLKESGPVLVKPTETLTLTCTVSGFSLNNARVGVSWIRQPPGKALEWLAWIFSNDEKSYSTSLKSRLTISKDTSKSQVVLTMTNMDPVDTATYYCARSVVTGGYYYEGMDVWGQGTTVTVSS light: SYVLTQPPSVSVAPGQTARITCGGNNIGSESVHWYQQKPGQAPVLVVDDSDRPSGIPERFSGSNSGNTATLTISRVEAGDEADYYCQVHDGNSEHVVFGGGTKLTVLGQPKANPTVTLFPPSSEELQANKATLVCLISDFYPGAVTVAWKADGSPVKAGVETTKPSKQSNNKYAASSYLSLTPEQWKSHRSYSCQVTHEGSTVEKTVAPTECS | no binding
